This note sets out measurements from patent publication US6544767 (AXYS PHARMACEUTICALS, dated 2003).

The target in this experiment is T1, mature recombinant human cathepsin O2 (human, UniProt P43235 115-329).
T1 construct: also called parent enzyme; mature enzyme
T1 sequence: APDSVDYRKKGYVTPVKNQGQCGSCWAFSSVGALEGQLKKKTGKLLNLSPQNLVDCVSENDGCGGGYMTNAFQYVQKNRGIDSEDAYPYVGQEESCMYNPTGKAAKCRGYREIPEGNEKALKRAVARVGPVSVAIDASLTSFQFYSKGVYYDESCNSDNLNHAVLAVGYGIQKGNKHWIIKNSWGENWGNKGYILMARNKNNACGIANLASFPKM
The experiment can be described thus: inhibition of enzyme activity; assay not detailed in Example 3.

B1: propart of human cathepsin O2 (expressed separately in the pTrcHis vector, six-histidine metal binding domain) (other)
chain: LYPEEILDTHWELWKKTHRKQYNNKVDEISRRLIWEKNLKYISIHNLEASLGVHTYELAMNHLGDMTSEEVVQKMTGLKVPLSHSRSNDTLYIPEWEGR
notes: Tag removal is not mentioned; also called proregion; not shown: vector-encoded leader of pTrcHis with a series of six histidine residues
The term Ki denotes the equilibrium dissociation constant of an inhibitor or competing ligand from its target. Take B1: the inhibition constant (Ki) was 0.1 nM.
